Reference: the domain aggregation screens of Martell et al. (2025)

Assay: soluble fraction after stress (log2 fold change); higher = more stays soluble; pooled small domains, quantitative proteomics
Conditions: stress: 75 degC
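Note: 20 min heating vs room temperature control held 20 min.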

| Sequence | soluble fraction (log2) |
| --- | --- |
| HMDDATDVPYQEFRTQVTSGQVEIAQFNNNTGKISFQSTSGEKFETSGPLELSSDDERLFLENIEDFKFFT | 0.416 |
| HMDDATIKVNIAAKFLNAGNNLFVDIDTTVLEGRVLLTGLVDTQEVRIDAVRLVWEVEGIREVINEIEIG | -5.19 |
| HMDDATTQLADRLLDLRRKAGYSQEQLADLLGVSRQAISKWEGAQGRPEVDNVVKLAQIYRVSTDFILTGS | -0.698 |
| HMDDAVSHPDAGHIVTVTKVSADGTAEVMYRGASWRAKTADGSPLTAGSARIVRVDGAALVVEP | 0.0931 |
| HMDDDDPDQEIAQYYEKLRAMNPDEETKQKLSDEINKLSKMMYSSQEAMVSRNYLDTVFSLPWHQF | -0.146 |
| HMDDEELDALKGIPANEYTQEQIKQISEVFHTLQKNEVKDWLNSLQLRNIELPFELRNEVFSQ | 0.211 |
| HMDDFPLKRGSKGNRVTLLQNALVKKYGAGILPKYGVDGMFGKEVEAALVHAKIPTTINEANYTKIV | -0.0514 |
| HMDDFSETLLQYIKEKGGHISLNDKTDAGVIYETFGVSKKTFKKAVGDLYKKRLIVLEDTGIRL | -0.501 |
| HMDDHLSFLAARLPDGASFDTDFDALGIDSFGMIALRAEVEERLGEQIADSDWTKVERPSEILAMLERK | -0.204 |
| HMDDLATAYKAMGVDASISDKDLKRAYRKLMSQHHPDKMIAKGVPADMVAMATEKTQEIQAAYDLIERSR | 0.203 |
| HMDDLIIQIELKQEGLEITGLKVLLKEDSVIDEQVKQTIRRKIERFLVNLYGNPNVYVSKFSMGI | -0.296 |
| HMDDLTTASIKQQLKALIDEENKNKPLSDQKLTDALKAQGIDISRRTVAKYREAMNIPGSSKRKRF | -0.0771 |
| HMDDMVLEIGPGIGTMTQYLAEAAGKVVAVEIDRNLLPILQETLADYDNVKVIHADVLSLDLEKLVQEE | -0.0859 |
| HMDDPDALITDSQLKAIHVLLGKLKIDDNLKHAYIADVLQLKDIPETLKTLTKHQGSTIIERLNLLIKDA | -0.0192 |
| HMDDPLSQLTPREREVLELMASGASNQGIADALVITVRAVEKYVSSIFGKLGLPSTGSESRRVLAVLTFLR | -0.178 |
| HMDDPYAGLRQRAYLFLRERDGAVPEEELIEHVFGSSGNPALWRPLLRQVLGADDRLDLRADGYWALRG | -0.187 |
| HMDDSPTARALRTLDLIHNRPGITAAELADRLGVTERAVRRYVLTLRDAGVPVLGTPGRYGGYQVGK | -0.818 |
| HMDDSVTFSEFVRMVDSGQVESVRITGNEVTGSDSTGNTFRTFVPPQYEGLVNRLVERDVAVTAEE | 0.149 |
| HMDDSVVFSLNAKGIRLTGAGKYGEAIALFDKAIAAKPGLSGLYFNRAEARRLSGDLPGARSDLEQALAI | -0.416 |
| HMDDTRLELTLLGKIHNDEEINKQSHINVNIKNGVILLTGESPRREITERILTLARTFEHTRQIVNQIAT | 0.0479 |
| HMDDVIDVYATYDKSAEGVLSNIQLFSNQKKTTPITPESGKIYIDVEGNYQFRWTGTQYATV | 0.15 |
| HMDDYRSLRGQEKAAIFLMSLSQEQAAKIFANLDDEEIKEISQAMSSLGTVGSEIIERLFVEFAEQVSS | -1.21 |
| HMDEARLAVASNLIRLRTDAGMTQAELGEKLNYSDKTISKWERAEAIPDAFVLKQIGELFHVSVDFLLRTH | -2.28 |
| HMDEDTWKLYKRAYKKYYARYMKGNMSEEAFKTWAAQAARDRDAAIEQVKAALDENLKAQVIERLKEELNR | -0.831 |
| HMDEEEKGEVEVPNLIGLTRKEAKKTLEEEGLLIETKESLKTNLDDEYEKIKSQLPKAGIKIKQGSTVYVD | 0.154 |
| HMDEGQEHYVKETDLPFYSEADPASSVIFPLVLNQKLIEKERKDDWIRALEPTTGLVGWVLLKSLSPQQLS | -0.0643 |

| Sequence | soluble fraction (log2) |
| --- | --- |
| HMDEIELLLQDAIQKLPEKQRMVFTLRYYDNLPYEEISKILDMSVSTLKTNYHYAKSKIEQYILDHS | -1.64 |
| HMDEKPPHEALSNREFQVLQLLAQGRSVGQIAQQLTLSANTISTYRARIFDKLGLHNPADLFSYAARHRLT | -1.19 |
| HMDELNFGNFEGTRIFVQRTARKKSIALSIRDGTIVILAPRHIPNQEIQELITTNTDWIRAKLSQHAETKR | -3.21 |
| HMDELVYVPNITGKTVEEARTELQKRDLGLNIAGHQFSDEFGKGRIISQDPAAGSRLKVNRSISVIVSSGQ | 0.0849 |
| HMDENVVLRKVAREAFVIEYVRGIRAIDPGIGGPKLWLMYKREFGDNDTVGRDTFEDILDRNNLKVRI | -4.06 |
| HMDEPADVAIFDGFRQMSEDELKKLYESLNLAMTFKDFLHIQNYFKNEENREPSVTEIRVLDTYWSDH | 0.0441 |
| HMDEPVDRLSPREQEVLALMAEGRSNAAIAHRLSITEKAVAKHINSIFTKLDLPLDEDDHRRVRAVLAWLR | -1.33 |
| HMDESIPVITYKDSVYANPKAFADAHKLPYKSLHNALSKARKEGKVRFMYKQYNFHLDNNGYIVAVS | -1.22 |
| HMDESLLDYALREIKARIQNGTYPPGTKLSTQEISDSLGISRTPVVAAINRLVAQGVAEAIPRRGTIVAR | -0.19 |
| HMDETFTITFDPNGGTLNGSKTKTVSLGDIVYGKLPTASKTGYSFIGWFTEKEGGEQISSATKIIASDLTL | 0.0518 |
| HMDETPESIFAKANELYPKYIKYFYTEQEYYSKVEEYINLYEFQKNSTYILGKDLEEFLEEYITNKQ | -1.61 |
| HMDEWDDGDKPKLKITLYADDDYYFASGFSKSSVSLSGSDGTVTSVSRSSSDTLIVYVTLDALD | 0.033 |
| HMDEYILTLDEVKELLKSKDYDDLKNVLKWSNKFQKDTIIQTAISEKVSDANVINIIKEITGQDITSLIV | -0.0278 |
| HMDEYTREQFVADMEEGRVREVTIHPNSEVPTGYIRVELANGADMKLYVTDIVEAEELVRSYGFDPPVRDV | 0.212 |
| HMDFDFHALGREIKRKRKDKGWTQEYLAQLLDRTPRSIMYMENRGQHPSLNILFKIATLLEISIDQFFF | -0.114 |
| HMDFDQELFDKIVEATMDEARAAMDTDDKNVREERWNKLIEHWHELFLEDYPEMDKYLEEITYKFQKNPAT | -0.662 |
| HMDFEVGTVKWFNTKKGYGFITRDQGEDIFVHFRNIKGQGRRSLSDGERVSFVVTHGDKGLQADQVSP | -1.25 |
| HMDFFTAAPEEDEIGKRIDVYIAEYKEELSRSRVQKLIENGLVTVNGKAVKSNYKLRKGDILEVEIPDPE | -0.0998 |
| HMDFGPDSAAPLADGSAPEGFDVKGNADSMLYHEPDGRWYDATVAEVWFRTAEAAQAAGFTKAGS | -0.119 |
| HMDFNNQLKRIRESNGLTQEQLAKILNVSRQSISSWEVGRNFPDLEMIVIISKEFNISLDQLIMG | -3.02 |
| HMDFQTDVFISRFAELKKESGETNKDLQDVFELSLSALINYQTGKRIPDIAFLHKLAQHFGVSADYLLGLS | -0.277 |
| HMDFRQALNTSADSDANKVALLESIVKGKYVSSTVNLLRRVITLRRGRSIDATLAAYSHYVSIR | 0.155 |
| HMDFSVTIKGTSFPVMVSLKKMKQVRLKVFPSGEIKLSAPVGTPEKWIVEYLNDKMSWIEEKMDLFVQ | -1.26 |
| HMDFTMSEIQTAMAALPRGYRTVVQLYLVDGYSHKEIAEMLGVDVNTSKSQLSRGRKQLQAFLAAMS | -0.152 |
| HMDFYIVLGVDRAASVSDVKRAYRRLARKYHPDINPGDREAEAFFLRVTEAYETLIDPDRRQDYDVNG | -1.06 |
| HMDFYPARVKWFNKSKGFGFANIFKSNDDIFLHIETLKRSGLSDLETGEAIVLTVTEGPRGKMADTILTWD | -0.531 |

| Sequence | soluble fraction (log2) |
| --- | --- |
| HMDGDFGMNLDWQPSEHFPTLARQAGIPADHITAEAIAEFRSYWIGQGKAMTQYQWDHKLLTNLKATKTR | -1.19 |
| HMDGEAQTYVEYGKWFPADLPLEAVRQLADGVPVTKELVAALNPRRSEWEEIKAGLDKIGYPNELL | -0.0206 |
| HMDGEITLYKVVGYIKASDFDDKKNGFVIADDYITKRQAEDTMYEWKRKKTYPYLEIKEYKGKDPYK | 0.255 |
| HMDGLAEQLFNILREELESGDYKPGQKLMSESALAQKYGVSRLTVRAAIARLSALDYVETRNGEGSFVKKR | -1.78 |
| HMDGLDFIINENGKIANINEEGELLAKGENIMLGYYKDSISTNNTINNGWLHTGDIAKIDNDGFIYL | -0.0909 |
| HMDGMNEELYQKFFALVGNPDEGKRISQAKAAQALGYSSAVVSAYKNRTYNGNIKAFEDAVQAWLKREERR | 0.17 |
| HMDGPELYESMKAIVPDQLDRTIFLTGGAYTPRAQEFLARVPNQQMEKPFEFEALRSLLARLT | 0.128 |
| HMDGTEVTTEPPGAQVEYEGKQFGPTPARIPGLVAGKSLHITLPGYLEVKPKIKAVPKDGEPLSFTLTAI | -0.0613 |
| HMDGVEVVTKPAGAQIEFAGKSYGPSPVHIPGLVAGSQLILRLPGFQAATVRLRTAPDKSKALEYTLQPA | -0.278 |
| HMDGVLVYKEGMTVADMATGLGKTIAQVVMKLMQLGIMANQNQSVDRETVELVALDFGYELKD | -2.27 |
| HMDGVSAEAVKSHIKTLIDGEGAKILSDDTLVDLLNAKGFDIARRTVAKYREAMGIGSSVQRRRQKKMG | 0.00787 |
| HMDGYLQLASKKNELITQLKTPPKPKRLFKDFEDRVYLITEYKVFVVSIFQNEFRLRPVNKDDFYRYTT | 0.293 |
| HMDGYTAVDKAVSDQYYTKENQLYFVSMGNFFSLGAKKIEGADISSFQILTTEYARDLQHLYFNGKV | -0.224 |
| HMDHFFSKYDSIVNHTVQKKETLFGISKKYGLTINEVIKFNPGIQIDKLKRRSVLIIPLMKKN | -1.07 |
| HMDHKSALQELLAPRGLQPSYRLVEEAGPAHARVFTSEVSVDGVARGSGTGTTIKMSEQAAAREALASLG | 0.249 |
| HMDHKSQLQEWAQSTLGETPRYVTIAETGPDHDKELTVELIIGRKSYSIAKGKSKKQAEQSAARIALGLLM | -1.99 |
| HMDHKSSYWSVKEANLFPELLKQFGSQWSLISDKLGTKSTTMVRNYYQRNAAQLGWKSVVEEADFKRNA | -0.585 |
| HMDHTYKHIELTGSSEKGIEEAVQNALAKASESVQNMRWLEVTDTRGHIEDGRVAHWQVTVKVGFTL | 0.213 |
| HMDHVEDRMVLEVVLKKLTEEERRIVMLHAVSGLKHREIAKALDIPLSTVLSKYKRTLKKLEAYLMEME | -1.72 |
| HMDIADKLTKREFEIFIAIAMNKSRFDIANELGLSAKTVSNGLTVIKRKLNAVPSQFSAIAAKHGYIG | -2.68 |
| HMDIAYFSNAELNDAFIQFLNMRQEAGKQLNGYQIQILTEKLERVADTDEDRISAVKNAIAGGWSNFYPPK | -0.607 |
| HMDIDASEVRGIISQYINEPDGRVSYILETIQKKYRYLPEEAIRIVAQELEVPLTQLFGVATFYAAFSL | 0.188 |
| HMDIDLNTIKKITLDDIHAFLSYLTTTYHSKAATRARKASSIRVFFNYLSAKANLIEVNPAQNLETPKLD | 0.165 |
| HMDIEELLSRSTDRLSRQTEIRRLLADAQGRPNISSLARRFKVARRTVIRDLQELIRRGEVPPEIYPK | -1.1 |
